Key:
[1] = target: HaALP, membrane bound alkaline phosphatase of Helicoverpa armigera (Helicoverpa armigera (endogenous in larval midgut)); assay: SPR
[2] = target: HaALP, membrane bound alkaline phosphatase of Helicoverpa armigera (Helicoverpa armigera (endogenous in larval midgut))

| Substance | Kd [1] [nM] | koff [1] [s⁻¹] | kon [1] [M⁻¹ s⁻¹] | LC50, insect bioassay on H. armigera neonates (toxin on artificial diet surface, 5 days) [2] [µg/mL] |
| --- | --- | --- | --- | --- |
| Cry1Ac W545A (domain or fragment) | 7150 | 0.00688 | 963 | 34.1 |
| Cry1Ac triple mutant (Q509A-N510A-R511A) (domain or fragment) | 262 | 0.00269 | 10200 | – |
| Cry1Ac R511A (domain or fragment) | 32 | 0.00179 | 55800 | – |
| Cry1Ac Y513A (domain or fragment) | 223 | 0.00147 | 6610 | – |
| Cry1Ac N510A (domain or fragment) | 58.4 | 0.00136 | 23200 | – |
| Cry1Ac Q509A (domain or fragment) | 29.6 | 0.00571 | 193000 | – |
| Cry1Ac tetra mutant (Q509A-N510A-R511A.Y513A) (domain or fragment) | 2420 | 0.000184 | 75 | – |

Source: PMC3813429
